From US20260241018A1 (BIOCYTOGEN PHARMACEUTICALS BEIJING, published 2026)

T1: His-tagged 5T4 protein of human (h5T4, ACRO Biosystems Inc., Cat #: TPG-H52E5) (human, UniProt Q13641 32-355)
T1 construct: Bought protein; not shown: His tag
T1 sequence (looked up): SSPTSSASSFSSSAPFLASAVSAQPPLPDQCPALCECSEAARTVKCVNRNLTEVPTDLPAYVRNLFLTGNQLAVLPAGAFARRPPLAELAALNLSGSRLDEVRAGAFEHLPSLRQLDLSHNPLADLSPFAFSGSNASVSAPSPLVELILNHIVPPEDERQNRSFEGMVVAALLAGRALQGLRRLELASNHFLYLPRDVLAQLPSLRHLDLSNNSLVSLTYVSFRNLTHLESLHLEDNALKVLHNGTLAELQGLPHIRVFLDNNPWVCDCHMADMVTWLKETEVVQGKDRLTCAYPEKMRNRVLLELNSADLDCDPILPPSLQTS

T2: His-tagged 5T4 protein of monkey (fas5T4, ACRO Biosystems Inc., Cat #: TPG-C52H3) (monkey, UniProt Q4R8Y9 35-355)
T2 construct: Bought protein
T2 sequence: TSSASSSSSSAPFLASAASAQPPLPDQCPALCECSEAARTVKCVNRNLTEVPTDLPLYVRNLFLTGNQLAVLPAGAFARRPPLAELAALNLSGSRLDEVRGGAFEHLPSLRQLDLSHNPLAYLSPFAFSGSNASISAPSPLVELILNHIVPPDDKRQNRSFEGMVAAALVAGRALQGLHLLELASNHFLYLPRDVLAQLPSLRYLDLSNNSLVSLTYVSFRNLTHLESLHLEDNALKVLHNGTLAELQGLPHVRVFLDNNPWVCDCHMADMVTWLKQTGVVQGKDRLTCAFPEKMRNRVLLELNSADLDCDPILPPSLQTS

T3: His-tagged 5T4 protein of mouse (m5T4, ACRO Biosystems Inc., Cat #: TPG-M52H3) (mouse, UniProt Q9Z0L0 32-361, limits assumed)
T3 construct: Bought protein; not shown: His tag
T3 sequence (looked up): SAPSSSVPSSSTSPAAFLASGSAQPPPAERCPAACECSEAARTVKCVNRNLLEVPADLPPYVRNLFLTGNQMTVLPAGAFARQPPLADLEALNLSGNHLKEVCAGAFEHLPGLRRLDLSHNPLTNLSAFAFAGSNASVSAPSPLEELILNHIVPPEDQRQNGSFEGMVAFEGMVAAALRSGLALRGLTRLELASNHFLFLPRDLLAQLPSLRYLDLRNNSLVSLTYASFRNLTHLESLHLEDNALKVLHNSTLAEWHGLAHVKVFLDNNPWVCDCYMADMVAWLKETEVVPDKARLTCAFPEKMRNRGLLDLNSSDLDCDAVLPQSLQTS

T4: h5T4-His protein (human, UniProt Q13641 32-355, limits assumed)
T4 construct: also called His-tagged human 5T4 protein; not shown: His tag
T4 sequence (looked up): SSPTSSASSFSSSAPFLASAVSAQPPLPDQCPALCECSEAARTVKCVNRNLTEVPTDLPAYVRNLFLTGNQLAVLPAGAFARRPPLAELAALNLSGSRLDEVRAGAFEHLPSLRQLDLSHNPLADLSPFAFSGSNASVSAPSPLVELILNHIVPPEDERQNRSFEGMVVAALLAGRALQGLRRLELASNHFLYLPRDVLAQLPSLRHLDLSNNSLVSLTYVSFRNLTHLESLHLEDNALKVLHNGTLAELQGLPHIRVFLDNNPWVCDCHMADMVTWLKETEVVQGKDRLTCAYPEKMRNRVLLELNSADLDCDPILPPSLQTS

T5: human 5T4 expressed on CHO-S cells (CHO-h5T4 cells) (human, UniProt Q13641 32-355)
T5 sequence: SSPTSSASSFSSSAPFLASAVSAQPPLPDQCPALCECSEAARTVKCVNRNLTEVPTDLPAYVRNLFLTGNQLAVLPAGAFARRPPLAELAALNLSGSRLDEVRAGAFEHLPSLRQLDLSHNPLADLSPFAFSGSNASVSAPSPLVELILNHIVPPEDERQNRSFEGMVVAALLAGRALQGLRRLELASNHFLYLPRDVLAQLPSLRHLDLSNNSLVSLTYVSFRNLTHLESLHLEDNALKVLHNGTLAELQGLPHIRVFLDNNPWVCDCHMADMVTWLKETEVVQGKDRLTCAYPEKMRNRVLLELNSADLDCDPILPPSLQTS

T6: mouse 5T4 expressed on CHO-S cells (CHO-m5T4 cells) (mouse, UniProt Q9Z0L0 32-361)
T6 sequence: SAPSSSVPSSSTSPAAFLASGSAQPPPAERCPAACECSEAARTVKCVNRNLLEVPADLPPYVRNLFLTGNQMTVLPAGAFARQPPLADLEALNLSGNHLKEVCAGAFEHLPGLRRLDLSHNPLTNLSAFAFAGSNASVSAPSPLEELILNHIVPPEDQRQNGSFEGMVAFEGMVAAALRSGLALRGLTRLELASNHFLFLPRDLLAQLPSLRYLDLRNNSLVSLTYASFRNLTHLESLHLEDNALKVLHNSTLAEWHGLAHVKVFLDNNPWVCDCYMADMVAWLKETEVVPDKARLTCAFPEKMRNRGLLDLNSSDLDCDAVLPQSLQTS

T7: dog 5T4 expressed on CHO-S cells (CHO-d5T4 cells) (dog)
T7 chain: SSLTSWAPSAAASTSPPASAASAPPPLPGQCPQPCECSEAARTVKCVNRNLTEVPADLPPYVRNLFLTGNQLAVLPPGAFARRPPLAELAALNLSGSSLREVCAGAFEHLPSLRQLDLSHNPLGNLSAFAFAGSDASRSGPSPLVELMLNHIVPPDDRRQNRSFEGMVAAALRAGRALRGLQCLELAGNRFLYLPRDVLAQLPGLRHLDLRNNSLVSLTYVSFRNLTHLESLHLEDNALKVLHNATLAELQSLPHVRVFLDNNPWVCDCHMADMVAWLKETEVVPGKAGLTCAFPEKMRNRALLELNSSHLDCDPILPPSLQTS

T8: monkey (Macaca fascicularis) 5T4 expressed on CHO-S cells (CHO-fas5T4 cells) (monkey (Macaca fascicularis), UniProt Q4R8Y9 35-355)
T8 construct: also called monkey 5T4
T8 sequence: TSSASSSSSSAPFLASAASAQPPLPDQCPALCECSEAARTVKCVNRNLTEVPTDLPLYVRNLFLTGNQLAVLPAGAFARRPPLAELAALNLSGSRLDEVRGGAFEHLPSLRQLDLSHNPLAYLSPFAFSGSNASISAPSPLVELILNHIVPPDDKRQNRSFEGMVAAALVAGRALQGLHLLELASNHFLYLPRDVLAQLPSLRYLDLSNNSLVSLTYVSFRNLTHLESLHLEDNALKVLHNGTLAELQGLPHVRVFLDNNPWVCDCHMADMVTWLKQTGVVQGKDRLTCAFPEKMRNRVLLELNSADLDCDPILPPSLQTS


Tests used:
[1] = target: T1, His-tagged 5T4 protein of human (h5T4, …); experiment: SPR (Biacore 8K), antibody captured on Protein A chip, His-tagged 5T4 as analyte
Method: (§1) Purified anti-5T4 antibodies were diluted to 2 μg/mL and then injected into the Biacore™ 8K biosensor at 10 μL/min for about 50 seconds to achieve a desired protein density (e.g., about 50 response units (RU)). His-tagged 5T4 protein at a concentration of 200 nM was then injected at 30 μL/min for 180 seconds. Dissociation was monitored for 400 seconds. The chip was regenerated after the last injection of each titration with Glycine (pH 2.0), 30 μL/min for 30 seconds. For ISO control, an antibody targeting an irrelevant target protein was used.
(§2) As a person of ordinary skill in the art would understand, the same method with appropriate adjustments for parameters (e.g., antibody concentration) was performed for each tested antibody.

[2] = target: T2, His-tagged 5T4 protein of monkey …; experiment: as above
Method: as §1, §2

[3] = target: T3, His-tagged 5T4 protein of mouse (m5T4, …); experiment: as above
Method: as §1, §2

[4] = target: T4, h5T4-His protein; experiment: epitope binding assay, h5T4-His captured; binder = analyte 2; competitor (analyte 1): 32E3
Method: (§3) Epitope binding assays were performed using ForteBio Octet system to determine whether two anti-5T4 antibodies target the same or overlapping epitopes. 1×HBS-EP+buffer (10 mM 4-(2-hydroxyethyl)-1-piperazineethanesulfonic acid (HEPES), 150 mM NaCl, 3 mM ethylenediaminetetraacetic acid (EDTA) and 0.05% P20, pH7.4) diluted from HBS-EP+buffer (10×) was used as the running buffer throughout the experiment. About 50 RU of h5T4-His protein was captured at a flow rate of 10 μL/min, and 200 nM of the tested antibody was injected at a flow rate of 30 μL/min to bind the ligand. Another comparison antibody was injected under the same conditions to determine whether the binding of different antibodies interfered with each other. The binding time was 180 s for each antibody.
(§4) The binding value of each antibody was obtained using Data Analysis HT 12.0. To quantify the interference of one antibody binding to another, a binding ratio was calculated to compare each pair of antibodies. The binding ratio is defined as the binding value of the second antibody (analyte 2), divided by the binding value of the first antibody (analyte 1). […] In general, antibody pairs that interfere with each other have the same or overlapping epitopes.

[5] = target: T4, h5T4-His protein; experiment: epitope binding assay, h5T4-His captured; binder = analyte 2; competitor (analyte 1): 32G1
Method: as §3, §4

[6] = target: T5, human 5T4 expressed on CHO-S cells …; experiment: flow cytometry, CHO-h5T4 cells
Method: (§5) CHO-h5T4 cells, CHO-m5T4 cells, CHO-fas5T4 cells or CHO-d5T4 cells were transferred to a 96-well plate at a density of 2×10⁵ cells/well respectively. The anti-5T4 antibodies were added to the 96-well plate, and incubated at 4° C. for 30 min. Then, the cells were incubated with the secondary antibody anti-hlgG-Fc-Alex Flour 647 (RL1-H) (Jackson ImmunoResearch Laboratories, Inc., Cat #: 109-606-170) at 4° C. in the dark for 15 minutes before flow cytometry analysis.

[7] = target: T4, h5T4-His protein; experiment: epitope binding assay, h5T4-His captured; binder = analyte 2; competitor (analyte 1): 35C6
Method: as §3, §4

[8] = target: T4, h5T4-His protein; experiment: epitope binding assay, h5T4-His captured; binder = analyte 2; competitor (analyte 1): 32G8
Method: as §3, §4

[9] = target: T6, mouse 5T4 expressed on CHO-S cells …; experiment: flow cytometry, CHO-m5T4 cells
Method: as §5

[10] = target: T4, h5T4-His protein; experiment: epitope binding assay, h5T4-His captured; binder = analyte 2; competitor (analyte 1): 31G4
Method: as §3, §4

[11] = target: T4, h5T4-His protein; experiment: epitope binding assay, h5T4-His captured; binder = analyte 2; competitor (analyte 1): 35B12
Method: as §3, §4

[12] = target: T7, dog 5T4 expressed on CHO-S cells …; experiment: flow cytometry, CHO-d5T4 cells
Method: as §5

[13] = target: T8, monkey (Macaca fascicularis) 5T4 …; experiment: flow cytometry, CHO-fas5T4 cells
Method: as §5

Binder | Kd [1] [nM] | koff [1] [s⁻¹] | kon [1] [M⁻¹ s⁻¹] | Kd [2] [nM] | koff [2] [s⁻¹] | kon [2] [M⁻¹ s⁻¹] | binding result [3] | binding ratio [4] | binding ratio [5] | Percentage of Positive Cells [6] [%] | binding ratio [7] | binding ratio [8] | Percentage of Positive Cells [9] [%] | binding ratio [10] | binding ratio [11] | Percentage of Positive Cells [12] [%] | Percentage of Positive Cells [13] [%] | further results
MAB2 analog-SI (antibody, V domains shown, MAB2 is a humanized IgG1 monoclonal antibody targeting 5T4) VH: QVQLQQPGAELVKPGASVKMSCKASGYTFTSYWITWVKQRPGQGLEWIGDIYPGSGRANYNEKFKSKATLTVDTSSSTAYMQLSSLTSEDSAVYNCARYGPLFTTVVDPNSYAMDYWGQGTSVTVSS VL: DVLMTQTPLSLPVSLGDQASISCRSSQSIVYSNGNTYLEWYLQKPGQSPKLLIYKVSNRFSGVPDRFSGSGSGTDFTLKISRVEAEDLGVYYCFQGSHVPFTFGSGTKLEIK | 22.5 | 0.00292 | 130000 | 55.1 | 0.00545 | 99000 | no binding (tested: 200 nM) | – | – | – | – | – | – | – | – | – | – | –
35B12 (antibody, V domains shown, also called anti-5T4 antibody 35B12) VH: QVQLQESGPRLVKPSETLSLTCTVSGGSISSNDWSWIRQPPGKGLEWIGEISYSGITNYNPSLKSRVSISVETSKNHFSLNLSSVTAADTAVYYCATAGGSSGWYDYWFDPWGQGTLVTVSS VL: not shown | 122 | 0.0215 | 176000 | 198 | 0.0219 | 111000 | – | 0.97 | 0.05 | 78 | 0.04 | 0.91 | 54.1 | 0.87 | 0 | 76 | 52.1 | Kd [3]: 72.2 nM; koff [3]: 0.00366 s⁻¹; kon [3]: 50700 M⁻¹ s⁻¹
31G4 (antibody, V domains shown, also called anti-5T4 antibody 31G4) VH: QVQLVQSGGGLVQPGGSLRLSCAASGFTFKSYWMHWVRQAPGKGLEWVSRINFDGSSITYADSVKGRFTISRDNAKNTLYLQMNSLSAEDTAVYYCARPLTYYEILTGFSQYFDFWGQGTLVTVSS VL: not shown | 2.68 | 0.000397 | 148000 | 10.1 | 0.00101 | 100000 | no binding (tested: 200 nM) | 1.01 | 1.04 | 79.3 | 1.05 | 1.01 | 1.4 | 0.04 | 1.01 | 1.1 | 58.8 | binding result [9]: no binding; binding result [12]: no binding
